Series [1] deals with human dynein_(MOTOR)^MT-B (microtubule-bound mutant motor domain) (human | T. thermophilus). Nature of the series: mass photometry.
The series “mass photometry” concerns the molecule itself. Description: mass photometry.

From article PMC10590275 (Nature structural & molecular biology, 2023) come the findings set out here.

B1: human LIS1-SNAP (natural protein)
chain: VLSQRQRDELNRAIADYLRSNGYEEAYSVFKKEAELDVNEELDKKYAGLLEKKWTSVIRLQKKVMELESKLNEAKEEFTSGGPLGQKRDPKEWIPRPPEKYALSGHRSPVTRVIFHPVFSVMVSASEDATIKVWDYETGDFERTLKGHTDSVQDISFDHSGKLLASCSADMTIKLWDFQGFECIRTMHGHDHNVSSVAIMPNGDHIVSASRDKTIKMWEVQTGYCVKTFTGHREWVRMVRPNQDGTLIASCSNDQTVRVWVVATKECKAELREHEHVVECISWAPESSYSSISEATGSETKKSGKPGPFLLSGSRDKTIKMWDVSTGMCLMTLVGHDNWVRGVLFHSGGKFILSCADDKTLRVWDYKNKRCMKTLNAHEHFVTSLDFHKTAPYVVTGSVDQTVKVWECR
Consider B1, for which the results for the “stoichiometry N” value (in series [1]; in “mass photometry”) were 1 LIS1 dimer per dynein_(MOTOR) monomer and 2, respectively.
